Data published in paper PMC6667474 (Scientific Reports, 2019).

Molecular target: T1, Myc-IQGAP3 (human, UniProt Q86VI3 2-1631)
T1 construct: human IQGAP3 from a commercial cDNA (Dharmacon); full length IQGAP3 (corresponding to amino acids 2-1631) in pcDNA3; also called overexpressed IQGAP3; IQ3; source: HEK293, transfected, in lysate
Assay: co-IP; HEK293 cells transfected with Myc-IQGAP3 alone or with Myc-Cdc42 (wt, Q61L or T17N); anti-IQGAP3 rabbit polyclonal antibody and Protein A-Sepharose 4 h at 4 C; lysis buffer 150 mM NaCl, 1% Triton X-100, 200 mM Tris-HCl pH 7.4; Western blot
Settings: partners not purified

T1 sequence (Q86VI3 2-1631): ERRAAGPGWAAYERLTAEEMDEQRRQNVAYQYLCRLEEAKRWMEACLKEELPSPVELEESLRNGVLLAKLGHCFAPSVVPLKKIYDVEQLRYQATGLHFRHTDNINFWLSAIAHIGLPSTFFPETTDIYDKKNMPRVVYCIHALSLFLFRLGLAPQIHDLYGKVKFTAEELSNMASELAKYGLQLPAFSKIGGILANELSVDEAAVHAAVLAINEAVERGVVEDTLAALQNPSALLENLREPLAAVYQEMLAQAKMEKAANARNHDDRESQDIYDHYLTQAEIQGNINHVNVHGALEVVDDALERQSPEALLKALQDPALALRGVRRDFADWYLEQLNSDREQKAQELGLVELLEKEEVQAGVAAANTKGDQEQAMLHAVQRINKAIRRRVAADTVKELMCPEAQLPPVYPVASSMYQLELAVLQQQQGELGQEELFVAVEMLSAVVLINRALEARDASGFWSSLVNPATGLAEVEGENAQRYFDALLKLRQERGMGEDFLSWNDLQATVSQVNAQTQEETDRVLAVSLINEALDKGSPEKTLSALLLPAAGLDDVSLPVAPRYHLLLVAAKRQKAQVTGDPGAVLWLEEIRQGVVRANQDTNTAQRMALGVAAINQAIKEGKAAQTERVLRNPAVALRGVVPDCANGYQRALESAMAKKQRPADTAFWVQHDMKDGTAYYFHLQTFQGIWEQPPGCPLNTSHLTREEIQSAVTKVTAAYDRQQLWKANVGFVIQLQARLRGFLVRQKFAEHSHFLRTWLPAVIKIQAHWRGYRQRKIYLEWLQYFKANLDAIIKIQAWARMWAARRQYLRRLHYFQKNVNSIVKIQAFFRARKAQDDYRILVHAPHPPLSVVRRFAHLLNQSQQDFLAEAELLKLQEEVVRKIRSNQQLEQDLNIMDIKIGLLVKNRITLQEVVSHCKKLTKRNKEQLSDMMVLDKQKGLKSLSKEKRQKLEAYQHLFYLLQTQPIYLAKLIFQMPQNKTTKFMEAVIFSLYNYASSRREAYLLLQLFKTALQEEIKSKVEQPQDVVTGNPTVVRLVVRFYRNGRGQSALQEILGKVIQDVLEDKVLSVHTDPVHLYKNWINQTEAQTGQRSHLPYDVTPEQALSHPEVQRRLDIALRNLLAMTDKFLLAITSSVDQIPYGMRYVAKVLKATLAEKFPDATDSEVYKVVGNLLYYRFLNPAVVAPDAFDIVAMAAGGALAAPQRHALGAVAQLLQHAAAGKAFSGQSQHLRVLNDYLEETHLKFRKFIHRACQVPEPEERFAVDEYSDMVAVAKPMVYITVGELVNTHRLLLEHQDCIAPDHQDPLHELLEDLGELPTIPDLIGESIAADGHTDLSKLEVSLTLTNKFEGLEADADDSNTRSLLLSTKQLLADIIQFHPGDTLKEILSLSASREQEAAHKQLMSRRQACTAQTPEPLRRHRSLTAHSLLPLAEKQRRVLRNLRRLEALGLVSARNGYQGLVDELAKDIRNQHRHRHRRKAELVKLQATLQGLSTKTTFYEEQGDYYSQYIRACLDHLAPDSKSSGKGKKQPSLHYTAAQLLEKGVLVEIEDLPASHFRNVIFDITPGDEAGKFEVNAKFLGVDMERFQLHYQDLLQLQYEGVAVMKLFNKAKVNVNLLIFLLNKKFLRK

- fold amount co-immunoprecipitated against wild type Cdc42: 1.7 fold
B1: Myc-Cdc42 constitutively active (Q61L) (natural protein)
chain: not shown
notes: Cdc42 Q61L cut from pGEX-2T-Cdc42-Q61L and inserted into pcDNA3; also called Myc-Cdc42-Q61L; Cdc42 Q61L; source: HEK293, transfected, in lysate
